Measurements from US20210292390A1, “CHIMERIC ANTIGEN RECEPTORS” (Oxford University Innovation Limited, priority 2016, published 2021).

Tests used:
[1] = target: biotinylated CD6 peptide pY629 pY662 (human); assay: SPR (BIAcore 3000), equilibrium binding, biotinylated peptide on streptavidin CM5 chip, 37° C.
[2] = target: biotinylated CD6 peptide pY629 Y662 (human); assay: as above
[3] = target: biotinylated CD6 peptide pY629 pY662 (human); assay: SPR (BIAcore 3000), equilibrium binding, biotinylated peptide on streptavidin CM5 chip, 15° C.
[4] = target: biotinylated CD6 peptide pY629 Y662 (human); assay: as above
[5] = target: biotinylated CD6 peptide Y629 pY662 (human); assay: SPR (BIAcore 3000), equilibrium binding, biotinylated peptide on streptavidin CM5 chip, 37° C.
[6] = target: biotinylated CD6 peptide Y629 pY662 (human); assay: SPR (BIAcore 3000), equilibrium binding, biotinylated peptide on streptavidin CM5 chip, 15° C.
SLP-76 = target: T1, SLP-76 (Homo sapiens, UniProt Q13094); assay: Co-immunoprecipitation with CD6 constructs in Jurkat cells, Western blot; format: binding; settings: Jurkat cells treated with Na3VO4
T1 construct: endogenous in cells; host or cells: Jurkat cells
T1 sequence (Q13094 1-533): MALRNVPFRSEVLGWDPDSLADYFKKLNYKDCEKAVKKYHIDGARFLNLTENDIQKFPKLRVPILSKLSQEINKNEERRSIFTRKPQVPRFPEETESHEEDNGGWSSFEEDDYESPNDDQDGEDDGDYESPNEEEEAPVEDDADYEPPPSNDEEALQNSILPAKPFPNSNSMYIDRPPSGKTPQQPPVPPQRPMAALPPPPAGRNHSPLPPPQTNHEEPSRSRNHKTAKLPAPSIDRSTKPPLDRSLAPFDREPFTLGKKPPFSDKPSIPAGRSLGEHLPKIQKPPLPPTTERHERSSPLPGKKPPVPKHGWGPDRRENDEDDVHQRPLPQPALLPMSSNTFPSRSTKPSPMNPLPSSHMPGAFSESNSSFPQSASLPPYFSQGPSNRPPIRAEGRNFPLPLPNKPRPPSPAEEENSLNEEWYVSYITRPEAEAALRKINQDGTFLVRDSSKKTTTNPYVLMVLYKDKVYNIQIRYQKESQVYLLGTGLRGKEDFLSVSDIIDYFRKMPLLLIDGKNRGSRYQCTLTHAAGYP
Source text: (§1) In FIG. 2(A) Lysate of 8×10^5 Jurkat cells treated with the phosphatase inhibitor Na3VO4 or immunoprecipitation samples of 3×10^6 cells were loaded on gels and after electrophoretic separation they were blotted on nitrocellulose membranes. The membranes were probed with the indicated antibodies and visualised using LI-COR western blotting. FIG. 2(B) illustrates Western Blot bands of three independent CD6 co-immunoprecipitations were quantified using the software ImageJ. Each co-immunoprecipitation value is divided by the intensity of the band in the lysate to compensate for differences in cell numbers used and is normalised to the intensity of EGFP in the co-immunoprecipitation divided by the intensity of EGFP in the lysate to compensate for different expression levels of the constructs. Samples were analysed using the unpaired Student t test comparing values of mutants to the VVT. n=3, error bars show the standard error of the mean, * p<0.05, ** p<0.01, ns=not significant.

GADS = target: T2, GADS (Homo sapiens, UniProt O75791); assay: as above; format: binding; settings: Jurkat cells treated with Na3VO4
T2 construct: endogenous in cells; host or cells: Jurkat cells
T2 sequence (O75791 1-330): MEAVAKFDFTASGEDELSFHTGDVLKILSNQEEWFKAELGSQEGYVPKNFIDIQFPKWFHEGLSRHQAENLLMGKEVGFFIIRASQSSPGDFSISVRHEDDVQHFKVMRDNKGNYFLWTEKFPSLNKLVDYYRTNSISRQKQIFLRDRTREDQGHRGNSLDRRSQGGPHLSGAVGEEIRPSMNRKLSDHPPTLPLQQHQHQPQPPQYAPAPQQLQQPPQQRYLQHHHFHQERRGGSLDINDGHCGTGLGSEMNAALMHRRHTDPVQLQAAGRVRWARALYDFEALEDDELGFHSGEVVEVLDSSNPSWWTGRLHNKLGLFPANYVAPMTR
Source text: as §1

CD4+ T cells = assay: Primary T cell activation by CD69 expression after CD3 and CD6 antibody stimulation; format: cell-based; settings: CD3 antibodies and 5 μg/ml CD6 antibodies; three donors; versus untransduced cells
Experimental: CD4+ T cells were stimulated with CD3 antibodies and 5 μg/ml CD6 antibodies to crosslink transduced CD6.

primary T cells = assay: Intracellular IL-2 in primary T cells after antibody stimulation; format: cell-based
2B4 Reay cells = assay: IL-2 secretion (ELISA) by hybridoma cells expressing chimeric receptors after CD6 crosslinking; format: cell-based, mouse
Source text: The activity of the exemplary chimeric receptor was compared with that of a comparator chimeric receptor lacking the CD6-derived signalling region. Both chimeric receptor molecules contained the extracellular and transmembrane regions of human CD6 and the cytoplasmic region of mouse CD3 zeta. The exemplary chimeric receptor further comprised residues 623 to 668 from the C terminus of human CD6.
Murine T hybridoma cells were transduced to express either the exemplary or comparator chimeric receptors. Cells were assessed for their response to human CD6 monoclonal antibody immobilised on 96 well tissue culture plates. After incubation for 18 h at 37° C., the supernatants were analysed for the presence of mouse IL-2 by ELISA.
The activity of a comparator chimeric receptor (consisting of the extracellular region of human CD6 and the mouse CD3 zeta tail, effectively a first generation CAR in the cytoplasmic region) was investigated alongside the exemplary chimeric receptor illustrative of CARs or cells of the invention. […] The cells were stimulated with different concentrations of plate-bound T12.1 monoclonal antibody (mAb), a CD6 crosslinking antibody, overnight and secreted mouse IL-2 was measured by ELISA.

Row | Molecule | Kd [1] [nM] | Kd [3] [nM] | co-immunoprecipitation of SLP-76 (SLP-76) | co-immunoprecipitation of GADS (GADS) | also measured
1 | CD6 Y629F: mutant form of CD6 with tyrosine Y629 substituted (protein, left off: large carriers; small tags and cut ends, mutant form of CD6 with tyrosine Y629 substituted) DQLNTSSAESELWEPGERLPVRLTNGSSSCSGTVEVRLEASWEPACGALWDSRAAEAVCRALGCGGAEAASQLAPPTPELPPPPAAGNTSVAANATLAGAPALLCSGAEWRLCEVVEHACRSDGRRARVTCAENRALRLVDGGGACAGRVEMLEHGEWGSVCDDTWDLEDAHVVCRQLGCGWAVQALPGLHFTPGRGPIHRDQVNCSGAEAYLWDCPGLPGQHYCGHKEDAGAVCSEHQSWRLTGGADRCEGQVEVHFRGVWNTVCDSEWYPSEAKVLCQSLGCGTAVERPKGLPHSLSGRMYYSCNGEELTLSNCSWRFNNSNLCSQSLAARVLCSASRSLHNLSTPEVPASVQTVTIESSVTVKIENKESRELMLLIPSIVLGILLLGSLIFIAFILLRIKGKYALPVMVNHQHLPTTIPAGSNSYQPVPITIPKEVFMLPIQVQAPPPEDSDSGSDSDYEHYDFSAQPPVALTTFYNSQRHRVTDEEVQQSRFQMPPLEEGLEELHASHIPTANPGHCITDPPSLGPQYHPRSNSESSTSSGEDYCNSPKSKLPPWNPQVFSSERSSFLEQPPNLELAGTQPAFSAGPPADDSSSTSSGEWFQNFQPPPQPPSEEQFGCPGSPSPQPDSTDNDDYDDISAA |  |  | strongly reduced | strongly reduced | 
2 | CD6 Y629F Y662F: mutant form of CD6 with both tyrosine residues Y629 and Y662 substituted (protein, UniProt P30203 1-668, looked up, variant Y629F Y662F) MWLFFGITGLLTAALSGHPSPAPPDQLNTSSAESELWEPGERLPVRLTNGSSSCSGTVEVRLEASWEPACGALWDSRAAEAVCRALGCGGAEAASQLAPPTPELPPPPAAGNTSVAANATLAGAPALLCSGAEWRLCEVVEHACRSDGRRARVTCAENRALRLVDGGGACAGRVEMLEHGEWGSVCDDTWDLEDAHVVCRQLGCGWAVQALPGLHFTPGRGPIHRDQVNCSGAEAYLWDCPGLPGQHYCGHKEDAGAVCSEHQSWRLTGGADRCEGQVEVHFRGVWNTVCDSEWYPSEAKVLCQSLGCGTAVERPKGLPHSLSGRMYYSCNGEELTLSNCSWRFNNSNLCSQSLAARVLCSASRSLHNLSTPEVPASVQTVTIESSVTVKIENKESRELMLLIPSIVLGILLLGSLIFIAFILLRIKGKYALPVMVNHQHLPTTIPAGSNSYQPVPITIPKEVFMLPIQVQAPPPEDSDSGSDSDYEHYDFSAQPPVALTTFYNSQRHRVTDEEVQQSRFQMPPLEEGLEELHASHIPTANPGHCITDPPSLGPQYHPRSNSESSTSSGEDYCNSPKSKLPPWNPQVFSSERSSFLEQPPNLELAGTQPAFSAGPPADDSSSTSSGEWFQNFQPPPQPPSEEQFGCPGSPSPQPDSTDNDDFDDISAA |  |  | almost no SLP-76 and GADS was detected | almost no SLP-76 and GADS was detected | percentage of CD69 positive cells (CD4+ T cells): no significant difference; percentage of IL-2 positive cells (primary T cells; CD3 antibodies but not CD6 antibodies): did not show a significantly increased level of T cell activation; percentage of IL-2 positive cells (primary T cells; both CD3 antibodies and CD6 antibodies, three donors): did not show a significantly increased percentage of IL-2 positive cells
3 | chimeric receptor of SEQ ID NO.4: human CD6 extracellular and transmembrane regions, mouse CD3 zeta cytoplasmic region, plus human CD6 C terminus (protein) MWLFFGITGLLTAALSGHPSPAPPDQLNTSSAESELWEPGERLPVRLTNGSSSCSGTVEVRLEASWEPACGALWDSRAAEAVCRALGCGGAEAASQLAPPTPELPPPPAAGNTSVAANATLAGAPALLCSGAEWRLCEVVEHACRSDGRRARVTCAENRALRLVDGGGACAGRVEMLEHGEWGSVCDDTWDLEDAHVVCRQLGCGWAVQALPGLHFTPGRGPIHRDQVNCSGAEAYLWDCPGLPGQHYCGHKEDAGAVCSEHQSWRLTGGADRCEGQVEVHFRGVWNTVCDSEWYPSEAKVLCQSLGCGTAVERPKGLPHSLSGRMYYSCNGEELTLSNCSWRFNNSNLCSQSLAARVLCSASRSLHNLSTPEVPASVQTVTIESSVTVKIENKESRELMLLIPSIVLGILLLGSLIFIAFILRAKFSRSAETAANLQDPNQLYNELNLGRREEYDVLEKKRARDPEMGGKQQRRRNPQEGVYNALQKDKMAEAYSEIGTKGERRRGKGHDGLYQGLSTATKDTYDALHMQTLAPRTSSGEWYQNFQPPPQPPSEEQFGCPGSPSPQPDSTDNDDYDDISAA |  |  |  |  | increase of IL-2 production as compared to a control receptor lacking the CD6-derived signalling region (2B4 Reay cells): at least 2.5 fold

The next lines start with results.

Row | Kd [1] [nM] | Kd [3] [nM] | co-immunoprecipitation of SLP-76 (SLP-76) | co-immunoprecipitation of GADS (GADS) | Molecule | also measured
4 | 770 to 1580 | 140 to 2050 |  |  | recombinant GADS SH2 domain (his-tagged) (protein, UniProt O75791 58-149, looked up) WFHEGLSRHQAENLLMGKEVGFFIIRASQSSPGDFSISVRHEDDVQHFKVMRDNKGNYFLWTEKFPSLNKLVDYYRTNSISRQKQIFLRDRT | Kd [2]: 600 to 880 nM; Kd [4]: 150 to 620 nM
5 | 620 to 2820 | 260 to 1820 |  |  | recombinant SLP-76 SH2 domain (his-tagged) (protein, UniProt Q13094 422-530, looked up) WYVSYITRPEAEAALRKINQDGTFLVRDSSKKTTTNPYVLMVLYKDKVYNIQIRYQKESQVYLLGTGLRGKEDFLSVSDIIDYFRKMPLLLIDGKNRGSRYQCTLTHAA | Kd [5]: 890 to 3090 nM; Kd [6]: 310 to 1870 nM
6 |  |  | strongly reduced | strongly reduced | CD6 Y662F: mutant form of CD6 with tyrosine Y662 substituted (protein, left off: large carriers; small tags and cut ends, mutant form of CD6 with tyrosine Y662 substituted) DQLNTSSAESELWEPGERLPVRLTNGSSSCSGTVEVRLEASWEPACGALWDSRAAEAVCRALGCGGAEAASQLAPPTPELPPPPAAGNTSVAANATLAGAPALLCSGAEWRLCEVVEHACRSDGRRARVTCAENRALRLVDGGGACAGRVEMLEHGEWGSVCDDTWDLEDAHVVCRQLGCGWAVQALPGLHFTPGRGPIHRDQVNCSGAEAYLWDCPGLPGQHYCGHKEDAGAVCSEHQSWRLTGGADRCEGQVEVHFRGVWNTVCDSEWYPSEAKVLCQSLGCGTAVERPKGLPHSLSGRMYYSCNGEELTLSNCSWRFNNSNLCSQSLAARVLCSASRSLHNLSTPEVPASVQTVTIESSVTVKIENKESRELMLLIPSIVLGILLLGSLIFIAFILLRIKGKYALPVMVNHQHLPTTIPAGSNSYQPVPITIPKEVFMLPIQVQAPPPEDSDSGSDSDYEHYDFSAQPPVALTTFYNSQRHRVTDEEVQQSRFQMPPLEEGLEELHASHIPTANPGHCITDPPSLGPQYHPRSNSESSTSSGEDYCNSPKSKLPPWNPQVFSSERSSFLEQPPNLELAGTQPAFSAGPPADDSSSTSSGEWYQNFQPPPQPPSEEQFGCPGSPSPQPDSTDNDDFDDISAA | 
